Data on 1 molecule can be found in publication PMC9250616 (2022).

By Kd is commonly meant a measure of binding affinity in units of concentration. A lower Kd goes with tighter binding.

In the test the target is T1, Protective antigen (Bacillus anthracis, UniProt P13423).
T1 chain: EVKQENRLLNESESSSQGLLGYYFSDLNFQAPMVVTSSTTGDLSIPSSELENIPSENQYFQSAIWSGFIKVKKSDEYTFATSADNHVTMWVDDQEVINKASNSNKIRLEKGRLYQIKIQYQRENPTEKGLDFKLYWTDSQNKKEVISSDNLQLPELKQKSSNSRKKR

B1: CMG2 (protein)
chain: QEQPSCRRAFDLYFVLDKSGSVANNWIEIYNFVQQLAERFVSPEMRLSFIVFSSQATIILPLTGDRGKISKGLEDLKRVSPVGETYIHEGLKLANEQIQKAGGLKTSSIIIALTDGKLDGLVPSYAEKEAKISRSLGASVYCVGVLDFEQAQLERIADSKEQVFPVKGGFQALKGIINSILAQSCTEILELQPSSVCVGEEFQIVLSGRGFMLGSRNGSVLCTYTVNETYTTSVKPVSVQLNSMLCPAPILNKAGETLDVSVSFNGGKSVISGSLIVTATECSNG
On to B1, for which binding was put at a Kd of 0.46 nM.
